Results as given in patent US12338483.

Columns and labels:
[1] = test system: MMP substrate (Example 3)
[2] = test system: GzmB/MMP AND-gate protease activity sensor
[3] = test system: MMP substrate of the biocomparator peptide cage (Example 4)
[4] = test system: Thrb substrate (individual protease substrate labeled with a fluorescent quencher and dye, nanoparticle-conjugated)
[5] = test system: GzmB substrate (individual protease substrate labeled with a fluorescent quencher and dye, nanoparticle-conjugated)
[6] = test system: T1, GzmB/Thrb AND-gate protease activity sensor
T1 sequence: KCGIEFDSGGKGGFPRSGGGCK

Sequence of MMP1 (P03956 100-469): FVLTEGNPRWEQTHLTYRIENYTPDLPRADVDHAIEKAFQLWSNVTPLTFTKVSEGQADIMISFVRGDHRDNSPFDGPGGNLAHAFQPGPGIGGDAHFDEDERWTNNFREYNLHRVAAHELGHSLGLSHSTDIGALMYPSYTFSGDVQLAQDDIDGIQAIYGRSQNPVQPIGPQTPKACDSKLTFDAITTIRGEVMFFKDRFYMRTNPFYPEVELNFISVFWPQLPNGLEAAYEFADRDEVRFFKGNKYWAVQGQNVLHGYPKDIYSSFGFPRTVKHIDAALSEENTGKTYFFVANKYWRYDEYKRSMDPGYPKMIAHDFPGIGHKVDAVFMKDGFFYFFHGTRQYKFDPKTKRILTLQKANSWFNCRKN

Substance	change in fluorescence in a cleavage assay (kinetic trace) [1]	change in fluorescence in a cleavage assay (quenched substrate) [4]	change in fluorescence in a cleavage assay (quenched substrate) [5]	change in fluorescence in a cleavage assay (AND-gate sensor) [6]	further results
MMP1	The substrate was cleaved with high activity by MMP1, MMP8, and MMP13				
MMP8	The substrate was cleaved with high activity by MMP1, MMP8, and MMP13				fluorescent signal in a cleavage assay (AND-gate sensor with GzmB and a second protease) [2]: The sensor produced low signals with the viral proteases compared to MMP8
MMP9					fluorescent cleavage assay [3]: Results also confirmed MMP9 can cleave the MMP substrate by cleavage assay
MMP13	The substrate was cleaved with high activity by MMP1, MMP8, and MMP13				
granzyme B (GzmB)		the Thrb substrate was cleaved only by Thrb	the GzmB substrate was cleaved effectively by GzmB alone	The reporter molecule emits a high fluorescent signal when both proteases are present together but not when either protease is present alone	fluorescent signal in a cleavage assay (AND-gate sensor with each MMP, with and without GzmB) [2]: > 2 fold
thrombin (Thrb)		the Thrb substrate was cleaved only by Thrb	the GzmB substrate was cleaved effectively by GzmB alone	The reporter molecule emits a high fluorescent signal when both proteases are present together but not when either protease is present alone	
